The results in this text go back to PMC11698917 (Nature Communications, 2025).

Several values for one entry are separate records, joined by “and”; a condition that tells them apart may be missing. Equal values may be shown once.

The term stoichiometry N denotes the number of molecules, sites or subunits per partner or assembly.

For series [1], the target named is T1, human VANGL2, full-length (FL), purified (human, UniProt Q9ULK5 1-521).
T1 sequence (looked up): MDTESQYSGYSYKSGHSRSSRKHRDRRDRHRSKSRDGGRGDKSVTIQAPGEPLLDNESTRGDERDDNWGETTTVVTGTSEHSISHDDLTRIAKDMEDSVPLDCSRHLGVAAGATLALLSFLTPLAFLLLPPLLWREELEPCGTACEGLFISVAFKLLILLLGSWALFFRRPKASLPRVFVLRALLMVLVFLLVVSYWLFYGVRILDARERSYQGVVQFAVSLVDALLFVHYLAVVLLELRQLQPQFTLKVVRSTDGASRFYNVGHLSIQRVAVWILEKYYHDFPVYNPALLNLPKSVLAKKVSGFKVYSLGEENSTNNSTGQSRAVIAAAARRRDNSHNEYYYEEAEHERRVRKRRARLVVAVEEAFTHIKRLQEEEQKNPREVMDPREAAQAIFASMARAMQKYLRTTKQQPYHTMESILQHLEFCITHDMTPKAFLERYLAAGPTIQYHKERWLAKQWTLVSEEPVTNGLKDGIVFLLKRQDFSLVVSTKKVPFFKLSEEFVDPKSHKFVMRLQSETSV
In words: cryo-EM structure.

The series “AUC” concerns the molecule itself. In words: AUC.

B1: PK1^745-790 peptide, purified from E. coli (peptide, UniProt Q96MT3 745-790, looked up)
chain: NPGMNRFLGLYGEDDDSWCSSSSSSSDSEEEGYFLGQPIPQPRPQR
B1: the binding result in series [1] is on record as “binds”.

B2: human VANGL1, full-length (FL), purified (natural protein, UniProt Q8TAA9 1-524, looked up)
chain: MDTESTYSGYSYYSSHSKKSHRQGERTRERHKSPRNKDGRGSEKSVTIQPPTGEPLLGNDSTRTEEVQDDNWGETTTAITGTSEHSISQEDIARISKDMEDSVGLDCKRYLGLTVASFLGLLVFLTPIAFILLPPILWRDELEPCGTICEGLFISMAFKLLILLIGTWALFFRKRRADMPRVFVFRALLLVLIFLFVVSYWLFYGVRILDSRDRNYQGIVQYAVSLVDALLFIHYLAIVLLELRQLQPMFTLQVVRSTDGESRFYSLGHLSIQRAALVVLENYYKDFTIYNPNLLTASKFRAAKHMAGLKVYNVDGPSNNATGQSRAMIAAAARRRDSSHNELYYEEAEHERRVKKRKARLVVAVEEAFIHIQRLQAEEQQKAPGEVMDPREAAQAIFPSMARALQKYLRITRQQNYHSMESILQHLAFCITNGMTPKAFLERYLSAGPTLQYDKDRWLSTQWRLVSDEAVTNGLRDGIVFVLKCLDFSLVVNVKKIPFIILSEEFIDPKSHKFVLRLQSETSV
B2: the “stoichiometry N” value in “AUC” is ~6 and 3.
